Assay results reported in patent US20030148956A1 (PROCTER AND GAMBLE, published 2003).

Tests used:
[1] = molecular target: T1, corticotropin releasing factor 2 receptor; test: cell-based or functional assay
T1 sequence (Q13324 whole entry, species assumed, looked up): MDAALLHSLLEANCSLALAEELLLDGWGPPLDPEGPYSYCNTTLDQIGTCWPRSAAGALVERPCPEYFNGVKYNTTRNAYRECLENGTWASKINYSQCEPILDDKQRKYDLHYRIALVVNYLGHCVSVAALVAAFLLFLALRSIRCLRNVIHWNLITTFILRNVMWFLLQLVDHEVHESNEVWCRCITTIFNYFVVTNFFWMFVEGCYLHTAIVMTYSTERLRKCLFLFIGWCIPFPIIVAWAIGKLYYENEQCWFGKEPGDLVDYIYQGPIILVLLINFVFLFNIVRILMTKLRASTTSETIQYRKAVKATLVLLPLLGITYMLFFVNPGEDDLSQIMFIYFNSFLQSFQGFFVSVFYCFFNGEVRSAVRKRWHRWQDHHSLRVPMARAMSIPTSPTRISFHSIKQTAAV

[2] = molecular target: corticotropin releasing factor 1 receptor; test: cell-based or functional assay

Binder | CRF2R EC50 [1] | CRF2R Emax % [1] | CRF1R EC50 [2] | CRF1R Emax % [2]
ZGPPISIDLPFWLLRKMIEIEKQEKEKQQAANNRLLLDTI (C-terminal amide) [SEQ ID NO 217] | 4.7 nM | 95% | 94.7 nM | 100%
ZGPPISIDLPFYLLRKMIEIEKQEKEKQQAANNALLLDTI (C-terminal amide) [SEQ ID NO 230] | 8.1 nM | 100% | 219 nM | 100%
ZGPPISIDLPLHLLRKMIEIEKQEKEKQQAANNALLLDTI (C-terminal amide) [SEQ ID NO 240] | 22 nM | 100% | 915 nM | 80%
ZGPPISIDLPFQLLRKMIEIEKQEKEKQQAANNRLLLATI (C-terminal amide) [SEQ ID NO 250] | 19.7 nM | 100% | 138 nM | 99%
ZGPPISIDLPLELLRKMIEIEKQEKEKQQAANNALLLDTI (C-terminal amide) [SEQ ID NO 235] | 25.7 nM | 100% | 806 nM | 70%
ZGPPISIDLPLYLLRKMIEIEKQEKEKQQAANNALLLDTI (C-terminal amide) [SEQ ID NO 244] | 8.8 nM | 98% | 300 nM | 100%
ZGPPISIDLPHFLLRKMIEIEKQEKEKQQAANNRLLLDTI (C-terminal amide) [SEQ ID NO 219] | 7.8 nM | 98% | 80.9 nM | 100%
ZGPPISIDLPTYLLRKMIEIEKQEKEKQQAANNALLLDTI (C-terminal amide) [SEQ ID NO 232] | 45.3 nM | 100% | 1000 nM | 7%
ZGPPISIDLPLWLLRKMIEIEKQEKEKQQAANNRLLLDTI (C-terminal amide) [SEQ ID NO 218] | 4.8 nM | 96% | 98.4 nM | 100%
ZGPPISIDLPIYLLRKMIEIEKQEKEKQQAANNALLLDTI (C-terminal amide) [SEQ ID NO 236] | 40.4 nM | 97% | 1000 nM | 15%
ZGPPISIDLPYFLLRKMIEIEKQEKEKQQAANNRLLLDTI (C-terminal amide) [SEQ ID NO 220] | 4.1 nM | 98% | 63.6 nM | 81%
ZGPPISIDLPLYLLRKMIEIEKQEKEKQQAANNALLLATI (C-terminal amide) [SEQ ID NO 245] | 7.5 nM | 93% | 381 nM | 100%
ZGPPISIDLPFHLLRKMIEIEKQEKEKQQAANNALLLDTI (C-terminal amide) [SEQ ID NO 228] | 7.1 nM | 100% | 276 nM | 100%
ZGPPISIDLPQFLLRKMIEIEKQEKEKQQAANNRLLLDTI (C-terminal amide) [SEQ ID NO 221] | 8.5 nM | 100% | 236 nM | 100%
ZGPPISIDLPYYLLRKMIEIEKQEKEKQQAANNALLLATI (C-terminal amide) [SEQ ID NO 225] | 4.8 nM | 89% | 220 nM | 97%
ZGPPISIDLPLHLLRKMIEIEKQEKEKQQAANNALLLATI (C-terminal amide) [SEQ ID NO 241] | 12.6 nM | 99% | 308 nM | 99%
ZGPPISIDLPLELLRKMIEIEKQEKEKQQAANNALLLATI (C-terminal amide) [SEQ ID NO 234] | 20.6 nM | 100% | 434 nM | 96%
ZGPPISIDLPLQLLRKMIEIEKQEKEKQQAANNALLLDTI (C-terminal amide) [SEQ ID NO 248] | 19.6 nM | 98% | 1000 nM | 32%
ZGPPISIDLPQYLLRKMIEIEKQEKEKQQAANNALLLATI (C-terminal amide) [SEQ ID NO 227] | 33.6 nM | 95% | 918 nM | 18%

Binder | CRF2R EC50 [1] | CRF2R Emax % [1] | CRF1R EC50 [2] | CRF1R Emax % [2]
ZGPPISIDLPLQLLEKMIEIEKQEKEKQQAANNALLLATI (C-terminal amide) [SEQ ID NO 249] | 12.2 nM | 92% | 1000 nM | 50%
ZGPPISIDVPTYLLRKMIEIEKQEKEKQQAANNRLLLDTI (C-terminal amide) [SEQ ID NO 253] | 41.8 nM | 86% | 1000 nM | 42%
ZGPPISIDLPTYLLRILIEIEKQEKEKQQAANNRLLLDTI (C-terminal amide) [SEQ ID NO 252] | 22.3 nM | 100% | 226 nM | 100%
ZGPPISIDLPFFLLRKMIEIEKQEKEKQQAANNRLLLDTI (C-terminal amide) [SEQ ID NO 223] | 3 nM | 92% | 48.1 nM | 81%
ZGPPISIDLPIYLLRKMIEIEKQEKEKQQAANNALLLATI (C-terminal amide) [SEQ ID NO 237] | 22.2 nM | 93% | 1000 nM | 18%
ZGPPISIDLPFYLLRKMIEIEKQEKEKQQAANNALLLATI (C-terminal amide) [SEQ ID NO 231] | 5.9 nM | 100% | 94 nM | 100%
ZGPPISIDLPAFLLRKMIEIEKQEKEKQQAANNRLLLDTI (C-terminal amide) [SEQ ID NO 222] | 9.4 nM | 100% | 384 nM | 95%
ZGPPISIDLPFQLLRKMIEIEKQEKEKQQAANNALLLDTI (C-terminal amide) [SEQ ID NO 251] | 11.8 nM | 100% | 926 nM | 80%
ZGPPISIDLPQYLLRKMIEIEKQEKEKQQAANNALLLDTI (C-terminal amide) [SEQ ID NO 224] | 26.9 nM | 100% | 1000 nM | 27%
ZGPPISIDLPFHLLRKMIEIEKQEKEKQQAANNALLLATI (C-terminal amide) [SEQ ID NO 229] | 10.3 nM | 100% | 298 nM | 100%
ZGPPISIDLPTYLLRKMIEIEKQEKEKQQAANNALLLATI (C-terminal amide) [SEQ ID NO 233] | 46.1 nM | 95% | 1000 nM | 11%
ZGPPISIDLPYYLLRKMIEIEKQEKEKQQAANNALLLDTI (C-terminal amide) [SEQ ID NO 226] | 7.6 nM | 100% | 315 nM | 95%
ZGPPISIDLPLHLLRKMIEIEKQEKEKQQATTNARLLDTV (C-terminal amide) [SEQ ID NO 238] | 16.7 nM | 100% | 753 nM | 88%
ZGPPISIDLPLYLLRKMIEIEKQEKEKQQATTNARLLDRV (C-terminal amide) [SEQ ID NO 243] | 16.8 nM | 100% | 440 nM | 96%
ZGPPISIDLPLQLLEKMIEIEKQEKEKQQATTNARLLDRV (C-terminal amide) [SEQ ID NO 247] | 18.8 nM | 100% | 1000 nM | 34%
ZGPPISIDLPLYLLRKMIEIEKQEKEKQQATTNARLLDTV (C-terminal amide) [SEQ ID NO 242] | 29 nM | 94% | 358 nM | 99%
ZGPPISIDLPLHLLRKMIEIEKQEKEKQQATTNARLLDRV (C-terminal amide) [SEQ ID NO 239] | 13.2 nM | 100% | 587 nM | 80%
ZGPPISIDLPLQLLRKMIEIEKQEKEKQQATTNARLLDTV (C-terminal amide) [SEQ ID NO 246] | 38.8 nM | 100% | 1000 nM | 33%
